Laboratory results taken from patent US20180356429A1.

Experiments:
[1] = target: Recombinant human IL-13 (R&D Systems, MN, catalog no. 213-ILB/CF) (human) (UniProt P35225); assay: sandwich pair screen, negative (blank) signal, binder is detection Ab; capture Ab 4D7
[2] = target: Recombinant human IL-13 (R&D Systems, MN, catalog no. 213-ILB/CF) (human) (UniProt P35225); assay: sandwich pair screen, negative (blank) signal, binder is detection Ab; capture Ab 11H4
[3] = target: Recombinant human IL-13 (R&D Systems, MN, catalog no. 213-ILB/CF) (human) (UniProt P35225); assay: sandwich pair screen, negative (blank) signal, binder is detection Ab; capture Ab 14C9
[4] = target: Recombinant human IL-13 (R&D Systems, MN, catalog no. 213-ILB/CF) (human) (UniProt P35225); assay: sandwich pair screen, negative (blank) signal, binder is detection Ab; capture Ab 8C11
[5] = target: Recombinant human IL-13 (R&D Systems, MN, catalog no. 213-ILB/CF) (human) (UniProt P35225); assay: sandwich pair screen, negative (blank) signal, binder is detection Ab; capture Ab 32116
[6] = target: Recombinant human IL-13 (R&D Systems, MN, catalog no. 213-ILB/CF) (human) (UniProt P35225); assay: sandwich pair screen, negative (blank) signal, binder is detection Ab; capture Ab 228B/C
[7] = target: Recombinant human IL-13 (R&D Systems, MN, catalog no. 213-ILB/CF) (human) (UniProt P35225); assay: sandwich pair screen, 100 pg/mL recombinant IL-13, binder is detection Ab; capture Ab 4D7
[8] = target: Recombinant human IL-13 (R&D Systems, MN, catalog no. 213-ILB/CF) (human) (UniProt P35225); assay: sandwich pair screen, 100 pg/mL recombinant IL-13, binder is detection Ab; capture Ab 11H4
[9] = target: Recombinant human IL-13 (R&D Systems, MN, catalog no. 213-ILB/CF) (human) (UniProt P35225); assay: sandwich pair screen, 100 pg/mL recombinant IL-13, binder is detection Ab; capture Ab 14C9
[10] = target: Recombinant human IL-13 (R&D Systems, MN, catalog no. 213-ILB/CF) (human) (UniProt P35225); assay: sandwich pair screen, 100 pg/mL recombinant IL-13, binder is detection Ab; capture Ab 8C11
[11] = target: Recombinant human IL-13 (R&D Systems, MN, catalog no. 213-ILB/CF) (human) (UniProt P35225); assay: sandwich pair screen, 100 pg/mL recombinant IL-13, binder is detection Ab; capture Ab 32116
[12] = target: Recombinant human IL-13 (R&D Systems, MN, catalog no. 213-ILB/CF) (human) (UniProt P35225); assay: sandwich pair screen, negative (blank) signal, binder is detection Ab; capture Ab MILR1444A
[13] = target: Recombinant human IL-13 (R&D Systems, MN, catalog no. 213-ILB/CF) (human) (UniProt P35225); assay: sandwich pair screen, 100 pg/mL recombinant IL-13, binder is detection Ab; capture Ab 228B/C
[14] = target: Recombinant human IL-13 (R&D Systems, MN, catalog no. 213-ILB/CF) (human) (UniProt P35225); assay: sandwich pair screen, 100 pg/mL recombinant IL-13, binder is detection Ab; capture Ab MILR1444A

Chain of Recombinant human IL-13 (R&D Systems, MN, catalog no. 213-ILB/CF) (human) (P35225 other isoform, or with tags, fused parts or gaps): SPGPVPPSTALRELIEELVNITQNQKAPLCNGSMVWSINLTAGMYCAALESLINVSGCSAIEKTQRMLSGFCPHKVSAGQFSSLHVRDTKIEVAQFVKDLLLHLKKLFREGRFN

**Q.** What does the source list for “MAB213 (R&D Systems, MN, Cat. No. MAB213) (antibody)”?
**A.** Assay Signal Neg (blank) [1]: 21.7; Assay Signal Neg (blank) [2]: 23.2; Assay Signal Neg (blank) [3]: 30; Assay Signal Neg (blank) [4]: 3.9; Assay Signal Neg (blank) [5]: 17.2; Assay Signal Neg (blank) [6]: 26.5; Assay Signal Pos [7]: 23.6; Assay Signal Pos [8]: 2310; Assay Signal Pos [9]: 33.2; Assay Signal Pos [10]: 4.1; Assay Signal Pos [11]: 18.2; Assay Signal Neg (blank) [12]: 0.3; Assay Signal Pos [13]: 52.7; Assay Signal Pos [14]: 47.2
